The values that follow come from US20120302737A1 (Genentech, published 2012).

As a reminder, the Kd is the concentration at which binding is half-saturated. Read a low Kd as higher affinity.

Assay [1] has as its target T1, EGFR on cells (NR6 expressing EGFR; HCA7) (UniProt P00533 25-1210, limits assumed).
T1 construct: whole, on cells; also called EGFR-NR6; EGFR-expressing NR6 cells
In words: equilibrium binding on HCA7 cells co-expressing EGFR and HER2, radiolabeled antibody competed with unlabeled antibody.

The target of assay [2] is T2, HER2 receptor ECD (UniProt P04626 23-652, limits assumed).
T2 construct: extracellular domain; also called HER2ECD; HER2 extracellular domain
In words: Octet; antibody loaded on the probe, 1st antigen HER2. For orientation: In BLI a coated tip is dipped into the sample, and binding shifts an interference pattern.

Assay [3] has as its target T1, EGFR on cells (NR6 expressing EGFR; …). In words: equilibrium binding on NR6 cells expressing EGFR, radiolabeled antibody competed with unlabeled antibody.
Assay [4] addresses T2, HER2 receptor ECD. The experiment in a line: Octet; loaded probe, 1st antigen HER2.

B1: wild-type α-EGFR antibody (D1.5) (antibody, human IgG1, kappa, V domains shown)
VH: EVQLVESGGGLVQPGGSLRLSCAASGFTFTGNWIHWVRQAPGKGLEWVGEISPSGGYTDYADSVKGRFTISADTSKNTAYLQMNSLRAEDTAVYYCARESRVSYEAAMDYWGQGTLVTVSS
VL: DIQMTQSPSSLSASVGDRVTITCRASQDVSTAVAWYQQKPGKAPKLLIYSASFLYSGVPSRFSGSGSGTDFTLTISSLQPEDFATYYCQQSYPTPYTFGQGTKVEIKR
notes: also called Wt α-EGFR (D1.5); D1.5 anti-EGFR antibody
In the case of B1, the Kd in assay [1] was found to be 0.34 nM; in assay [3], 0.56 nM. Also, in the assay with HER2 receptor ECD [2], the binding result is given as “no binding”.

B2: one-armed α-EGFR engineered antibody (antibody)
heavy: not shown
chain: not shown
light: DIQMTQSPSSLSASVGDRVTITCRASQDVSTAVAWYQQKPGKAPKLLIYSASFLYSGVPSRFSGSGSGTDFTLTISSLQPEDFATYYCQQSYPTPYTFGQGTKVEIKRTVAAPSVFIFPPSDEQLKSGTASVVCLLNNFYPREAKVQWKVDNALQSGNSQESVTEQDSKDSTYSLSSTLTLSKADYEKHKVYACEVTHQGLSSPVTKSFNRGEC
notes: also called 1-armed α-EGFR; One-Armed EGFR
Turning to B2, the binding result with HER2 receptor ECD [4] is “no binding”. The molecule also came in with a Kd in assay [3] of 1.15 nM.
